Experimental findings from patent US20210261643A1, “INHIBITORS OF P-TEFB MEDIATED TRANSCRIPTION” (The Regents of the University of California, priority 2018, published 2021) are described below.

The test system of experiment [1] is HIV reactivation in J-Lat 9.2 cells. The experiment can be described thus: HIV reactivation in J-Lat 9.2 latent infection model, FACS of GFP positive cells. The format is cell-based. As to conditions: J-Lat 9.2 cells, PMA 100 nM. An excerpt:
FIGS. 4A and 4B. Stable expression of HT1 inhibits HIV reactivation. FIG. 4A: Stable expression of HT1 inhibits HIV reactivation from 2D10 cells. 3f:HT1 was stably expressed in 2D10 cells (D-HT cells). […] Error bars represent standard deviation from triplicate FACS analysis. FIG. 4B: Stable expression of HT1 inhibits HIV reactivation from J-Lat 9.2 cells. 3f:HT1 was stably expressed in J-Lat 9.2 cells (L-HT cells). […] Error bars represent standard deviation from triplicate FACS analysis.
To test the effect of HT1 on HIV-1 in T-lymphocyte derived cells, 3f:HT1 was stably expressed in HIV latent infection models 2D10 and J-Lat 9.2 cells (D-HT and L-HT cells respectively), which carry replication-defective, GFP-flagged HIV proviruses. In both 2D10 and J-Lat 9.2, the basal HIV transcription level is undetectable, as measured through GFP expression. Compounds such as the PKC agonist PMA, the histone deacetylase inhibitor SAHA or the BET bromodomain inhibitor JQ1 reactivate HIV transcription and increase GFP-positive cells detected by FACS analysis. 2D10 cells are more sensitive to HIV reactivation than J-Lat 9.2 cells, though they harbor a mutation in the N-terminal sequence of Tat (H13L). 2D10 and D-HT cells were incubated for 24 hrs with PMA (10 nM), SAHA (5 μM) or JQ1 (1 μM) and GFP positive cells were detected by FACS analysis. […]

In experiment [2] the target is positive transcription elongation factor B (UniProt O60563 1-726; P50750 1-372). The experiment can be described thus: cell-based or functional assay.
positive transcription elongation factor B, sequence (O60563 whole entry, chain 1 of 2, the tested form may be a part): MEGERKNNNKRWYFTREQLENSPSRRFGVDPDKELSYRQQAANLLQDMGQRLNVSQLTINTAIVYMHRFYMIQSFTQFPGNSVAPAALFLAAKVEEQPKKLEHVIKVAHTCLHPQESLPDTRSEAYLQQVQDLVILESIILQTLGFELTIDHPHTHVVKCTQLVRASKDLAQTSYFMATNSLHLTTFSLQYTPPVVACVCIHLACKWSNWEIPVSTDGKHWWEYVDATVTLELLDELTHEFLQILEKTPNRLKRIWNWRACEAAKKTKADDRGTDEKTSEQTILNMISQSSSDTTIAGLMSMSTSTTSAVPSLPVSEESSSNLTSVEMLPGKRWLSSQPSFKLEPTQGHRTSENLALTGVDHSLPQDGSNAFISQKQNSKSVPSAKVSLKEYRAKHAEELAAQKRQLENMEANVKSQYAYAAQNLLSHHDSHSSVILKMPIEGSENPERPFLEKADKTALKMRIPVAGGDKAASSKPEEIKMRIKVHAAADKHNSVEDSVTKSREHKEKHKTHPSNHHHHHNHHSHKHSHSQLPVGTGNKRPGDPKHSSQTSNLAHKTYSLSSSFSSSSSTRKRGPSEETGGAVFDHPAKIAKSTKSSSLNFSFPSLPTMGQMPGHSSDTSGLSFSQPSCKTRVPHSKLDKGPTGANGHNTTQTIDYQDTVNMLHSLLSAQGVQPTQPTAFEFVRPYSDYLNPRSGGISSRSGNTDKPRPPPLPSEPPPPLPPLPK
positive transcription elongation factor B, sequence (P50750 whole entry, chain 2 of 2, the tested form may be a part): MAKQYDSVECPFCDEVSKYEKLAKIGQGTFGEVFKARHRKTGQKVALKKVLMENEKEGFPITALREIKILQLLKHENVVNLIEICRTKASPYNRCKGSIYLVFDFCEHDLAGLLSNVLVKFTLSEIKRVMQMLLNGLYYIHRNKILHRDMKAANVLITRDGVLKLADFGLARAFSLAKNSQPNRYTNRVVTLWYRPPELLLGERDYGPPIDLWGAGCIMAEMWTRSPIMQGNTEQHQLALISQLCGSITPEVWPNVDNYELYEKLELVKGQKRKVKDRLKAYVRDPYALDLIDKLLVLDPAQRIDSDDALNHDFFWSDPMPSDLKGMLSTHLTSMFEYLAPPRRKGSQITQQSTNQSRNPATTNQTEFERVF
Experiment [3] has as its system Tat-dependent gene expression from the HIV promoter. The experiment can be described thus: Luciferase reporter assay, pLTR-Luc co-transfected with pTat and pHT in 293T cells. It is filed as cell-based. The text has this: FIGS. 2A, 2B, and 2C. A HEXIM1-Tat fusion peptide inhibits gene expression from the HIV promoter. FIG. 2A. Structure of the HEXIM1-Tat fusion peptides used in the study. The functional domains used from HEXIM1 and Tat include a HEXIM1 Arginine Rich Motif (ARM, black box, residues 150-162) that binds RNA, a HEXIM1 inhibitory domain (ID, light grey box, residues 200-211) that inhibits CDK9 through a PYNT motif, and Tat transactivation domain (AD, dark grey box, residues 1-48) that binds to P-TEFb. The conceptual schemes are not drawn to scale. FIG. 2B. Transient expression of HT1 inhibits Tat-induced LTR-driven Luc expression. Upper panel: a schema depicts the reporter assay. A luciferase reporter gene (Luc) is under the control of the HIV promoter (P-HIV) and can be activated by ectopically expressed Tat. The Luc assay was used to titrate the inhibitory effect of HT1-3 on P-HIV transactivation by Tat. Middle panel: increasing amounts of m:HT1, m:HT2 or m:HT3 expressing plasmid (pHT) were co-transfected in 293T cells with a plasmid (pTat) expressing f:Tat and another (pLTR-Luc) expressing Luc under the control of the HIV promoter. Luc activity was plotted as % activity relative to control (empty vector used instead of pHT), depending on the transfected pHT:pTat ratio. Error bars in the graph represent standard deviation from triplicate experiments. FIG. 2C. Transient expression of HT1 inhibits Luc expression from HIV-1 NL43ΔenvLuc. Top schema depicts the reporter assay. A luciferase reporter gene (Luc) is inserted in a replication-defective HIV-1 molecular clone (pNL43ΔenvLuc) in which Luc and Tat are under the control of the HIV promoter (P-HIV). A Luc assay was used to titrate the inhibitory effect of HT1-3 on P-HIV transactivation by Tat. Bottom: increasing amounts of pHT1 were co-transfected in 293T cells with pNL43ΔenvLuc. Luc activity was plotted as % activity relative to control (empty vector used instead of pHT), depending on the transfected amounts of pHT1. Error bars in the graph represent standard deviation from triplicate experiments.
Luciferase (Luc) reporter assays were performed to titrate the potency of each chimera to inhibit Tat-dependent gene expression from the HIV promoter. Effector plasmids included pHT1-3 and pTat, which respectively expressed a Myc-epitope tag chimera (m:HT1-3) and a Flag-epitope tagged Tat (f:Tat). pHT1, pHT2 or pHT3 was transiently co-transfected in 293T cells with pTat and a Luc reporter gene under the control of the HIV promoter (P-HIV, expressed from the plasmid pLTR-Luc). […] Finally, HT1 lead to a 4-fold decrease in Luc expression at a 2:1 ratio. […] Similar results were obtained when co-transfecting pHT1-3 and pTat in NIH1 cells, which stably carry an LTR-Luc reporter gene. Thus, we selected HT1 for further investigation.
In general terms: A reporter such as luciferase makes a cellular process visible.

Another experiment deals with HIV TAR RNA. The experiment in a line: RNA immunoprecipitation and RT-qPCR with TAR-specific primers in 293T cells. It is filed as binding. The note with it: 293T cells, anti-Myc Ab, RT-qPCR. As to the method: FIGS. 3A, 3B, 3C and 3D. HT1 prevents Tat from bringing active P-TEFb to TAR. FIG. 3A: HT1 inhibits the kinase activity of P-TEFb subunit CDK9. m:HT1 and/or f:Tat were transiently expressed in 293T cells. Cell lysates were used for IP using anti-Myc Ab (lanes 2-4), or control IgG (lane 1). Immunoprecipitates were incubated with ATP and recombinant GST-CTD proteins for in vitro kinase assay. Six replicate experiments were performed, and mean relative kinase activities are shown in the bar graph to the right. FIG. 3B: HT1 binds to TAR. m:HT1 or m:Tat (or empty vector, EV, as a control) was transiently co-expressed with TAR RNA-expressing pU16TAR in 293T cells. Cell lysates were used for IP using anti-Myc Ab or control IgG. RNA was purified from the immunoprecipitates and submitted to RT-qPCR using TAR-specific primers. Relative TAR enrichment was calculated as qPCR count using anti-Myc Ab minus using IgG, and normalized to EV. Error bars represent standard deviation from triplicate qPCR assays. […] Error bars represent standard deviation from triplicate qPCR assays. FIG. 3D: HT1 competes with Tat for TAR binding. m:HT1 and/or f:Tat were transiently co-expressed with TAR RNA-expressing pU16TAR in 293T cells. Cell lysates were used for IP using anti-Myc Ab or control IgG. RNA was purified from the immunoprecipitates and submitted to RT-qPCR using TAR-specific primers (upper panel). Relative TAR enrichment was calculated as qPCR count using anti-Myc Ab minus using IgG, and normalized to EV. Error bars represent standard deviation from triplicate qPCR assays.
Finally, since HEXIM1 ARM resembles the TAR-binding domain from Tat, we investigated whether HT1 could bind to HIV TAR. m:HT1 or m:Tat was co-expressed in 293T cells with TAR RNA, expressed under RNA Polymerase III dependent H1 promoter, and immunoprecipitated using anti-Myc Ab or IgG as a control. TAR RNAs co-immunoprecipitated with HT1 or Tat were quantified by RT-qPCR analysis. […] To test whether HT1 affects Tat-TAR interactions, increasing amounts of m:HT1 were also co-expressed with a fixed amount of f:Tat and TAR. […] As expected, HT1 also bound to endogenous 7SK snRNA.
On the technique in general: Quantitative PCR measures a nucleic acid by following its amplification.

Take `CCCCCCCCCCCCCC(=O)O[C@@H]1[C@@H](C)[C@@]2(O)[C@@H](C=C(CO)C[C@]3(O)C(=O)C(C)=C[C@@H]23)[C@@H]2C(C)(C)[C@]12OC(C)=O` [PMA, reference compound]: the “increase in GFP expression” value in experiment [1] was found to be 12%.

B1: Myc-epitope tagged HEXIM1-Tat chimera HT1 (designed binder)
chain: KKKHRRRPSKKKRHWKPYYKLTWEEKKKFDEKQSLRASRIRAEMFAKGQPVAPYNTTQFLMDDHDQEEPDLVDMEPVDPYLEPWKHPGSQPRTACNNCYCKKCCFHCYACFTRKGLGISYG
Take B1: the “fold decrease in relative kinase activity (CTD-P band intensity normalized with CDK9), in vitro kinase assay on immunoprecipitates with ATP and GST-CTD” value in experiment [2] came out at 3.1 fold.

B2: HT3 (protein)
chain: FDEKQSLRASRIRAEMFAKGQPVAPYNTTQFLMDDHDQEEPDLVDMEPVDPYLEPWKHPGSQPRTACNNCYCKKCCFHCYACFTRKGLGISYG
B2: in experiment [3] (293T cells, pHT:pTat ratio 2:1), the “decrease in Luc expression from the HIV promoter” value is listed as at most 2 fold. The “immunoprecipitation of TAR RNA (in words)” value in the experiment with HIV TAR RNA is recorded as “failed to bind TAR”.

B3: THT: fusion protein of TAT ARM, HEXIM CDK9 inhibitory domain and TAT P-TEFb-binding domain (protein)
chain: MEQKLISEEDLRKKRRQRRRAPPGGGGSRIRAEMFAKGQPVAPYNTTQFLMDDHDQEEPDLVDMEPVDPYLEPWKHPGSQPRTACNNCYCKKCCFHCYACFTRKGLGISYG
For the molecule B3, in experiment [3] (luciferase assays performed as in Example 1), the “inhibition of HIV transcription in luciferase assays (in words)” value is “potently inhibited”.

B4: HT2 (protein)
chain: KKKHRRRPSKKKRHWKPYYKLTWEEKKKVDMEPVDPYLEPWKHPGSQPRTACNNCYCKKCCFHCYACFTRKGLGISYG
In the case of B4, the “inhibition of Luc expression from the HIV promoter (in words)” value in experiment [3] (293T cells, ratio of pHT2 to pTat 2:1) is “failed to inhibit”.
